Earlier results in US12509496B2 (Shanghai Minwei Biotechnology Co., LTD, priority 2020, dated 2025).

Settings: in the blood; cited from earlier work

dulaglutide
half-life in vivo: 108 to 113 h
